Columns and labels:
[1] = molecular target: EG-VEGF receptor (high affinity binding sites) on bovine adrenal cortical capillary endothelial cells (ACE) (bovine); assay: 125I-EG-VEGF competitive binding on ACE cells, Scatchard analysis
[2] = molecular target: EG-VEGF receptor (high affinity binding sites) on bovine adrenal cortical capillary endothelial cells (ACE) (bovine); assay: displacement of 125I-EG-VEGF by unlabeled tagged EG-VEGF on ACE cells
[3] = molecular target: EG-VEGF binding component on human umbilical vein endothelial cells (HUVEC) (human); assay: displacement of 125I-EG-VEGF by unlabeled tagged EG-VEGF on HUVEC and other non-responsive cells

B1: EG-VEGF-his (human EG-VEGF with C-terminal … tag, baculovirus-produced) (ligand)
chain: AVITGACERDVQCGAGTCCAISLWLRGLRMCTPLGREGEECHPGSHKVPFFRKRKHHTCPCLPNLLCSRFPDGRYRCSMDLKNINFGHHHHHHHH
modifications: 125I-iodinated when used as tracer in the cell binding assays (Iodobead or lactoperoxidase method); the unlabeled form was the competitor and the ELISA antigen
Kd [1]: 0.9 to 1 nM
ED50 [2]: 10 nM
competitor concentration that displaces the binding [3]: > 270 nM
